Experimental data: paper PMC5836512 (Molecular cell, 2018)
Like-named read-outs stand apart in the source and are kept apart here. Blank lines part the entries; values can stand above or below the binder they belong to.

Columns and labels:
Cul1•^GSTRbx1 [1] = target: T1, Cul1•^GSTRbx1 (UniProt Q13616 1-776; P62877 1-108); test: pull-down
Cul1^AMC•Rbx1 [2] = target: T2, Cul1^AMC•Rbx1 (UniProt Q13616 1-776; P62877 1-108, AMC on the C-terminus (GGGG^AMC peptide joined by sortase)); test: FRET or BRET
Cul1^AMC•Rbx1 [3] = target: T2, Cul1^AMC•Rbx1; test: FRET or BRET; remark: listed apart in the source
Cul1•^GSTRbx1 [4] = target: T1, Cul1•^GSTRbx1; test: pull-down; remark: listed apart in the source
Cul1•^GSTRbx1 [5] = target: T1, Cul1•^GSTRbx1; test: pull-down; remark: listed apart in the source

T1 sequence (Q13616 whole entry, chain 1 of 2): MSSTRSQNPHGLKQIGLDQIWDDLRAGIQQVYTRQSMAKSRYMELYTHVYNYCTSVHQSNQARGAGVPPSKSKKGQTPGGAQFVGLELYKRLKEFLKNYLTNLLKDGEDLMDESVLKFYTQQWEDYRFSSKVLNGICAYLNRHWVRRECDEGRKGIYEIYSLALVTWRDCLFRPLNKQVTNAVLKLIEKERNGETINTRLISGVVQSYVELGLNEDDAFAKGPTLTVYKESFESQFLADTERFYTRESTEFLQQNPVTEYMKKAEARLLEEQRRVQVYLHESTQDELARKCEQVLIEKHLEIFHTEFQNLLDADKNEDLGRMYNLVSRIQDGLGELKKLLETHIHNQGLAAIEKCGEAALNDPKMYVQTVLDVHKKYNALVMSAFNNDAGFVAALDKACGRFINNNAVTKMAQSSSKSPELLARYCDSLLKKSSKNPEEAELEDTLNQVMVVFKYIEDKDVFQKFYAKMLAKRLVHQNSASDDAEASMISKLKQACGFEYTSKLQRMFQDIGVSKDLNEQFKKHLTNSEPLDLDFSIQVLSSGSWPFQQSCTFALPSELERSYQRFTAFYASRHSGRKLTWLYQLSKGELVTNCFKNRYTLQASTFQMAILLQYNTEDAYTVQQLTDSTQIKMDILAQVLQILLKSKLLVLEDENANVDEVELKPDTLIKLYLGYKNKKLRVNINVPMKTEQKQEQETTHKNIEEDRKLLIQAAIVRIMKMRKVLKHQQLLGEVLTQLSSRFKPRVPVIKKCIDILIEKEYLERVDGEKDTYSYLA
T1 sequence (P62877 whole entry, chain 2 of 2): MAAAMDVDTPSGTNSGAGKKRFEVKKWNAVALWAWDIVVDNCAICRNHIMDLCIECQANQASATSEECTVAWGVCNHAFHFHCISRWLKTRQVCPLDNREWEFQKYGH
T2 sequence (Q13616 whole entry, chain 1 of 2): as the sequence (Q13616 whole entry, chain 1 of 2) above
T2 sequence (P62877 whole entry, chain 2 of 2): as the sequence (P62877 whole entry, chain 2 of 2) above

B1: ^ΔH1Cand1 (domain or fragment, UniProt Q86VP6 15-1230, looked up)
chain: MTSSDKDFRFMATNDLMTELQKDSIKLDDDSERKVVKMILKLLEDKNGEVQNLAVKCLGPLVSKVKEYQVETIVDTLCTNMLSDKEQLRDISSIGLKTVIGELPPASSGSALAANVCKKITGRLTSAIAKQEDVSVQLEALDIMADMLSRQGGLLVNFHPSILTCLLPQLTSPRLAVRKRTIIALGHLVMSCGNIVFVDLIEHLLSELSKNDSMSTTRTYIQCIAAISRQAGHRIGEYLEKIIPLVVKFCNVDDDELREYCIQAFESFVRRCPKEVYPHVSTIINICLKYLTYDPNYNYDDEDEDENAMDADGGDDDDQGSDDEYSDDDDMSWKVRRAAAKCLDAVVSTRHEMLPEFYKTVSPALISRFKEREENVKADVFHAYLSLLKQTRPVQSWLCDPDAMEQGETPLTMLQSQVPNIVKALHKQMKEKSVKTRQCCFNMLTELVNVLPGALTQHIPVLVPGIIFSLNDKSSSSNLKIDALSCLYVILCNHSPQVFHPHVQALVPPVVACVGDPFYKITSEALLVTQQLVKVIRPLDQPSSFDATPYIKDLFTCTIKRLKAADIDQEVKERAISCMGQIICNLGDNLGSDLPNTLQIFLERLKNEITRLTTVKALTLIAGSPLKIDLRPVLGEGVPILASFLRKNQRALKLGTLSALDILIKNYSDSLTAAMIDAVLDELPPLISESDMHVSQMAISFLTTLAKVYPSSLSKISGSILNELIGLVRSPLLQGGALSAMLDFFQALVVTGTNNLGYMDLLRMLTGPVYSQSTALTHKQSYYSIAKCVAALTRACPKEGPAVVGQFIQDVKNSRSTDSIRLLALLSLGEVGHHIDLSGQLELKSVILEAFSSPSEEVKSAASYALGSISVGNLPEYLPFVLQEITSQPKRQYLLLHSLKEIISSASVVGLKPYVENIWALLLKHCECAEEGTRNVVAECLGKLTLIDPETLLPRLKGYLISGSSYARSSVVTAVKFTISDHPQPIDPLLKNCIGDFLKTLEDPDLNVRRVALVTFNSAAHNKPSLIRDLLDTVLPHLYNETKVRKELIREVEMGPFKHTVDDGLDIRKAAFECMYTLLDSCLDRLDIFEFLNHVEDGLKDHYDIKMLTFLMLVRLSTLCPSAVLQRLDRLVEPLRATCTTKVKANSVKQEFEKQDELKRSAMRAVAALLTIPEAEKSPLMSEFQSQISSNPELAAIFESIQKDSSSTNLESMDTS
fold increase of KD over WT Cand1 (Cul1•^GSTRbx1 [1]): ~4.5 fold
fold of koff (fast phase) over WT Cand1 (Cul1^AMC•Rbx1 [2]): 21 fold

B2: ^FlAsHΔH1Cand1 (domain or fragment, UniProt Q86VP6 15-1230, looked up)
chain: MTSSDKDFRFMATNDLMTELQKDSIKLDDDSERKVVKMILKLLEDKNGEVQNLAVKCLGPLVSKVKEYQVETIVDTLCTNMLSDKEQLRDISSIGLKTVIGELPPASSGSALAANVCKKITGRLTSAIAKQEDVSVQLEALDIMADMLSRQGGLLVNFHPSILTCLLPQLTSPRLAVRKRTIIALGHLVMSCGNIVFVDLIEHLLSELSKNDSMSTTRTYIQCIAAISRQAGHRIGEYLEKIIPLVVKFCNVDDDELREYCIQAFESFVRRCPKEVYPHVSTIINICLKYLTYDPNYNYDDEDEDENAMDADGGDDDDQGSDDEYSDDDDMSWKVRRAAAKCLDAVVSTRHEMLPEFYKTVSPALISRFKEREENVKADVFHAYLSLLKQTRPVQSWLCDPDAMEQGETPLTMLQSQVPNIVKALHKQMKEKSVKTRQCCFNMLTELVNVLPGALTQHIPVLVPGIIFSLNDKSSSSNLKIDALSCLYVILCNHSPQVFHPHVQALVPPVVACVGDPFYKITSEALLVTQQLVKVIRPLDQPSSFDATPYIKDLFTCTIKRLKAADIDQEVKERAISCMGQIICNLGDNLGSDLPNTLQIFLERLKNEITRLTTVKALTLIAGSPLKIDLRPVLGEGVPILASFLRKNQRALKLGTLSALDILIKNYSDSLTAAMIDAVLDELPPLISESDMHVSQMAISFLTTLAKVYPSSLSKISGSILNELIGLVRSPLLQGGALSAMLDFFQALVVTGTNNLGYMDLLRMLTGPVYSQSTALTHKQSYYSIAKCVAALTRACPKEGPAVVGQFIQDVKNSRSTDSIRLLALLSLGEVGHHIDLSGQLELKSVILEAFSSPSEEVKSAASYALGSISVGNLPEYLPFVLQEITSQPKRQYLLLHSLKEIISSASVVGLKPYVENIWALLLKHCECAEEGTRNVVAECLGKLTLIDPETLLPRLKGYLISGSSYARSSVVTAVKFTISDHPQPIDPLLKNCIGDFLKTLEDPDLNVRRVALVTFNSAAHNKPSLIRDLLDTVLPHLYNETKVRKELIREVEMGPFKHTVDDGLDIRKAAFECMYTLLDSCLDRLDIFEFLNHVEDGLKDHYDIKMLTFLMLVRLSTLCPSAVLQRLDRLVEPLRATCTTKVKANSVKQEFEKQDELKRSAMRAVAALLTIPEAEKSPLMSEFQSQISSNPELAAIFESIQKDSSSTNLESMDTS
modifications: FlAsH (Lumio Green) on the N-terminal tetracysteine tag
Kd (Cul1^AMC•Rbx1 [3]): 0.7 pM

The next lines start with the values.

binding result (Cul1•^GSTRbx1 [4]): binds
B3: Cand1^1-603 (domain or fragment, UniProt Q86VP6 1-603, looked up)
chain: MASASYHISNLLEKMTSSDKDFRFMATNDLMTELQKDSIKLDDDSERKVVKMILKLLEDKNGEVQNLAVKCLGPLVSKVKEYQVETIVDTLCTNMLSDKEQLRDISSIGLKTVIGELPPASSGSALAANVCKKITGRLTSAIAKQEDVSVQLEALDIMADMLSRQGGLLVNFHPSILTCLLPQLTSPRLAVRKRTIIALGHLVMSCGNIVFVDLIEHLLSELSKNDSMSTTRTYIQCIAAISRQAGHRIGEYLEKIIPLVVKFCNVDDDELREYCIQAFESFVRRCPKEVYPHVSTIINICLKYLTYDPNYNYDDEDEDENAMDADGGDDDDQGSDDEYSDDDDMSWKVRRAAAKCLDAVVSTRHEMLPEFYKTVSPALISRFKEREENVKADVFHAYLSLLKQTRPVQSWLCDPDAMEQGETPLTMLQSQVPNIVKALHKQMKEKSVKTRQCCFNMLTELVNVLPGALTQHIPVLVPGIIFSLNDKSSSSNLKIDALSCLYVILCNHSPQVFHPHVQALVPPVVACVGDPFYKITSEALLVTQQLVKVIRPLDQPSSFDATPYIKDLFTCTIKRLKAADIDQEVKERAISCMGQIICNLGDN

binding result (Cul1•^GSTRbx1 [5]): binds
B4: Cand1 (natural protein, UniProt Q86VP6 1-1230, looked up)
chain: MASASYHISNLLEKMTSSDKDFRFMATNDLMTELQKDSIKLDDDSERKVVKMILKLLEDKNGEVQNLAVKCLGPLVSKVKEYQVETIVDTLCTNMLSDKEQLRDISSIGLKTVIGELPPASSGSALAANVCKKITGRLTSAIAKQEDVSVQLEALDIMADMLSRQGGLLVNFHPSILTCLLPQLTSPRLAVRKRTIIALGHLVMSCGNIVFVDLIEHLLSELSKNDSMSTTRTYIQCIAAISRQAGHRIGEYLEKIIPLVVKFCNVDDDELREYCIQAFESFVRRCPKEVYPHVSTIINICLKYLTYDPNYNYDDEDEDENAMDADGGDDDDQGSDDEYSDDDDMSWKVRRAAAKCLDAVVSTRHEMLPEFYKTVSPALISRFKEREENVKADVFHAYLSLLKQTRPVQSWLCDPDAMEQGETPLTMLQSQVPNIVKALHKQMKEKSVKTRQCCFNMLTELVNVLPGALTQHIPVLVPGIIFSLNDKSSSSNLKIDALSCLYVILCNHSPQVFHPHVQALVPPVVACVGDPFYKITSEALLVTQQLVKVIRPLDQPSSFDATPYIKDLFTCTIKRLKAADIDQEVKERAISCMGQIICNLGDNLGSDLPNTLQIFLERLKNEITRLTTVKALTLIAGSPLKIDLRPVLGEGVPILASFLRKNQRALKLGTLSALDILIKNYSDSLTAAMIDAVLDELPPLISESDMHVSQMAISFLTTLAKVYPSSLSKISGSILNELIGLVRSPLLQGGALSAMLDFFQALVVTGTNNLGYMDLLRMLTGPVYSQSTALTHKQSYYSIAKCVAALTRACPKEGPAVVGQFIQDVKNSRSTDSIRLLALLSLGEVGHHIDLSGQLELKSVILEAFSSPSEEVKSAASYALGSISVGNLPEYLPFVLQEITSQPKRQYLLLHSLKEIISSASVVGLKPYVENIWALLLKHCECAEEGTRNVVAECLGKLTLIDPETLLPRLKGYLISGSSYARSSVVTAVKFTISDHPQPIDPLLKNCIGDFLKTLEDPDLNVRRVALVTFNSAAHNKPSLIRDLLDTVLPHLYNETKVRKELIREVEMGPFKHTVDDGLDIRKAAFECMYTLLDSCLDRLDIFEFLNHVEDGLKDHYDIKMLTFLMLVRLSTLCPSAVLQRLDRLVEPLRATCTTKVKANSVKQEFEKQDELKRSAMRAVAALLTIPEAEKSPLMSEFQSQISSNPELAAIFESIQKDSSSTNLESMDTS
